Assay results taken from the RNAGym collection of RNA variant scans (doi:10.7554/elife.80360).

B1: Hairpin Ribozyme (parent)
chain: GUCCUCUUUCACGUGCGCGUGAAAGAGAGAAGUGAACCAGAGAAACACACGUUGUGGUAUAUUACCUGGUA

Variants of: B1
Test: self-cleavage, relative activity (ratio to wild type); higher = more cleavage; co-transcriptional

Variant	self-cleavage
U8A G21U	0.691
U7C A11U	0.294
U7C A11G	0.684
U7C G27A	0.386
U7C G27C	0.172
U7G C38G	0.0992
U7G C38A	0.129
U8C A28G	1.07
U7A G54A	0.535
U7A G68A	0.28
U7A G68C	0.146
U7C G40A	0.334
U7C A22C	0.178
U7C A22G	0.565
U7A U33G	0.0989
U8C A36G	0.928
U7A G19A	0.845
U7G G54U	0.619
U7G G54A	0.642
U8C C10U	0.564
U7G G34C	1.39
U7G G34A	0.984
U7G A28G	1.06
U7G A28C	0.329

Variant	self-cleavage
U7A A22G	0.61
U7A A22C	0.649
U8C G32A	0.198
U7G U8G	0.768
U8C A30C	0.201
C6U U53A	0.912
U7G U52A	0.734
U7G U52C	0.961
U8A A24G	0.511
U7G G17C	0.612
U7G G17U	1.04
U7G G17A	0.849
U8C A35G	0.385
U7C G42U	0.205
U7C G42C	0.245
U7C G42A	0.287
U7C G15A	0.753
U8C C18G	0.528
U7C A64G	0.458
U7C A64C	0.26
C6U U60C	0.794
U7C C65G	0.357
U8C G27C	0.152
U8C G27A	0.443

Variant	self-cleavage
U7G U60G	0.484
U8C C65G	0.143
U8A A43U	0.106
U7C U67G	0.171
U7A C18A	1.12
U7C G51A	0.69
U7A A23U	0.791
U8C C37G	0.214
C6U U8A	0.538
C6U U8G	0.431
U7G A71U	0.746
U7C G69A	0.289
C6U U62A	0.266
U8A A30C	0.172
U8A G32C	0.111
U7C U60A	0.737
U7C U60G	0.621
U7G C48U	0.114
U7C C12U	0.89
U7G C12G	0.658
U8C G56C	0.12
U7A U8C	0.559
U8C A64C	0.043
U7A U62A	0.177

Variant	self-cleavage
U8A U62A	0.105
U8A G29C	0.104
U8A G29U	0.0651
U7C G32U	0.261
U7C U9C	0.673
U7C U9G	0.35
U7G A43C	0.138
U8A A41G	0.615
U7C G17A	0.863
U7G C10G	0.643
U7G C10A	0.765
U7G C10U	0.64
U8A G57A	0.196
U8A G57C	0.0778
U8A G57U	0.267
U7C A41U	0.98
U7A A41C	1.3
U8C C46U	0.172
U8A A71G	0.699
U7C A26U	0.176
U7A U20G	0.705
C6U U20G	0.637
U7A G57U	0.253
U8C A41G	0.458

Variant	self-cleavage
U8C A41C	0.72
U7A C65A	0.876
U7A C65U	0.349
U7C C37A	0.37
U7C C37G	0.273
U8A U60C	0.89
U7C G68C	0.302
U8A G68A	0.179
U7A A28G	1.03
U7A A28C	0.471
U7A U63G	0.199
U7A U63C	0.102
U7G G68U	0.269
U8C G15C	0.565
U8C G15U	0.932
U8C C50U	0.172
U7A G27U	0.251
U7A G27C	0.197
U7C C46G	0.124
U8A A47U	0.16
U8A A47C	0.295
U8A A11C	0.393
U7A A11C	0.636
U7A A44C	0.177

Variant	self-cleavage
U7C U58G	0.815
U7A C50G	0.269
U7A C50A	0.175
U7A G56U	0.128
U7A G56C	0.176
U7A G51C	0.972
U8A A22G	0.644
U8A G25C	0.155
U7G A26U	0.384
U7A A64U	0.248
U7A A39U	0.546
U7G A64G	0.461
U7C G25C	0.251
U7A A36U	0.568
U8C G19C	0.232
U8C G54C	0.346
U7C A71G	1.13
U7C A71C	1.35
U7C C48U	0.279
U7A A43C	0.186
U8C U55G	0.101
U8A C12A	0.606
U8C C16U	0.734
U8C C16G	0.651

Variant	self-cleavage
U8C C16A	0.84
U7G	0.875
U7A	0.92
U7C	0.894
U8C C48A	0.136
U8A U9A	0.793
U8A U9G	0.791
U7G U20A	0.294
U8C G57U	0.368
U7G C65U	0.369
U7A C10G	0.541
U8C U20G	0.439
U8C U20A	0.604
U7C U14C	0.925
U7C U14G	0.723
U8C A22G	0.515
U8C A22C	0.209
U8C G34U	1.32
U7C A44U	0.106
U8A U52C	0.647
U7C A61C	0.11
U8C A47C	0.131
U8A U58A	0.561
